In US20230272055A1 (Incyte, published 2023):
Residue numbers refer to the chain shown, from its start.

Target: T1, Recombinant MBP-mutCALR Type 1 fusion protein (human)
T1 construct: custom made at Cepter; also called recombinant mutCALR protein
Experiment: SPR, IgG captured, 1:1 fit, Exp. 1
Experimental: Experiment 1: Recombinant MBP-mutCALR Type 1 fusion protein was custom made at Cepter (cepterbiopartners.com). Data for the interaction of antibodies with recombinant MBP-mutCALR Type 1 fusion protein were collected at 25° C. on a Biacore 8K instrument (Cytiva, Marlborough, Mass.), and all reagents were obtained from Cytiva unless otherwise specified. The experiments were conducted using Tris-buffered saline (pH 7.2), 0.005% Surfactant P20, 1 mM CaCl₂) as running buffer. To prepare the capture surfaces, anti-human IgG (Fc) antibodies (Product #29234600) was amine-coupled onto a CM4 chip (Product #BR100534) under standard conditions using an Amine Coupling Kit (Product #BR100050). […] The kinetics parameters were obtained by applying 1:1 binding model to fit the data from multiple-cycle injection experiments using Biacore Insight Evaluation software.

B1: anti-mutCALR antibody clone 10 (antibody, human IgG1, lambda, V domains shown)
VH: EVQLVQSGAEVKKPGASVKVSCKVSGYTLTELSMQWVRQAPGKGLEWMGGFDPDDGETMYAEKFQGRLTVTEDTSTDTVYMELRSLTSEDTALYFCATSPGYDFFDYWGQGTLVTVSS
VL: SYELTQPPSVSVAPGQTARIPCGGNNIGSEGVHWYQQKPGQAPVLVVYDDSDRPSGIPERFSGSNSGNTATLTISRVEAGDEADYYCQVWDSSNDLLIFGGGTKLTVLG
notes: human IgG1
**Q.** What does the source list for B1?
**A.** Kd: 1.38 nM; koff: 0.00292 s⁻¹; kon: 2.11e+06 M⁻¹ s⁻¹

B2: anti-mutCALR antibody clone 12 (antibody, human IgG1, lambda, V domains shown)
VH: B1 VH with D55G
VL: B1 VL with E3V, I20V, P21S, E30K, G31S, H33N, Q36R, V47I, S75N
notes: human IgG1
**Q.** What does the source list for B2?
**A.** Kd: 4.08 nM; koff: 0.0024 s⁻¹; kon: 589000 M⁻¹ s⁻¹

B3: anti-mutCALR antibody clone 26 (antibody, human IgG1, lambda, V domains shown)
VH: B1 VH
VL: B1 VL with E3V, P21T, E30K, G31S, N94I, L96H, L105V
notes: human IgG1
**Q.** For B3, which Kd is on record?
**A.** Its Kd is 9.84 nM.

**Q.** What about the koff of the same binder?
**A.** Its koff is 0.00471 s⁻¹.

**Q.** And the kon?
**A.** The kon was 478000 M⁻¹ s⁻¹.

B4: anti-mutCALR antibody clone 20 (antibody, human IgG1, lambda, V domains shown)
VH: B1 VH
VL: B1 VL with E3V, Q16K, P21T, E30K, S75N
notes: human IgG1
**Q.** What does the source list for B4?
**A.** Kd: 4.46 nM; koff: 0.00498 s⁻¹; kon: 1.12e+06 M⁻¹ s⁻¹

B5: anti-mutCALR antibody clone 27 (antibody, human IgG1, lambda, V domains shown)
VH: B1 VH
VL: B1 VL with E3V, P21T, S29I, E30K, G31S, S51R, S75N
notes: human IgG1
**Q.** For B5, which Kd is on record?
**A.** Its Kd is 9.63 nM.

**Q.** And the koff?
**A.** The koff was 0.00366 s⁻¹.

**Q.** And the kon?
**A.** Its kon is 380000 M⁻¹ s⁻¹.

B6: anti-mutCALR antibody clone 19 (antibody, human IgG1, lambda, V domains shown)
VH: B1 VH with S75P
VL: B1 VL with E3V, P8L, P14L, P21T, N25S, S29D, E30I, G31R, S75N
notes: human IgG1
**Q.** Which results are given for B6?
**A.** Kd: 9.04 nM; koff: 0.0132 s⁻¹; kon: 1.46e+06 M⁻¹ s⁻¹

B7: anti-mutCALR antibody clone 21 (antibody, human IgG1, lambda, V domains shown)
VH: B1 VH with K23E
VL: B1 VL with E3V, I20V, P21S, E30K, G31S, H33N, Q36R, V47I
notes: human IgG1
**Q.** Which results are given for B7?
**A.** Kd: 2.58 nM; koff: 0.00664 s⁻¹; kon: 2.57e+06 M⁻¹ s⁻¹

B8: anti-mutCALR antibody clone 29 (antibody, human IgG1, lambda, V domains shown)
VH: B1 VH
VL: B1 VL with E3V, Q16K, P21T, E30K, G31S, N94S, T103A
notes: human IgG1
**Q.** B8 was tested. Which Kd did it give?
**A.** The Kd was 8.16 nM.

**Q.** And the koff?
**A.** The koff was 0.00561 s⁻¹.

**Q.** What about the kon of the same binder?
**A.** Its kon is 688000 M⁻¹ s⁻¹.

B9: anti-mutCALR antibody clone 18 (antibody, human IgG1, lambda, V domains shown)
VH: B1 VH
VL: B1 VL with E3V, Q16K, P21T, E30K, G31S, S55L, S75N
notes: human IgG1
**Q.** What does the source list for B9?
**A.** Kd: 2.66 nM; koff: 0.00628 s⁻¹; kon: 2.37e+06 M⁻¹ s⁻¹

B10: anti-mutCALR antibody clone 13 (antibody, human IgG1, lambda, V domains shown)
VH: B1 VH with E1Q
VL: not shown
notes: human IgG1
**Q.** Which Kd does the source give for B10 here?
**A.** The Kd was 10.1 nM.

**Q.** And the koff?
**A.** Its koff is 0.0301 s⁻¹.

**Q.** What about the kon of the same binder?
**A.** Its kon is 2.99e+06 M⁻¹ s⁻¹.

B11: anti-mutCALR antibody clone 16 (antibody, human IgG1, lambda, V domains shown)
VH: B1 VH
VL: B1 VL with E3V, Q16K, P21T, I27T, E30K, G31S, S75N
notes: human IgG1
**Q.** How did the Kd turn out when B11 was run?
**A.** The Kd was 12.5 nM.

**Q.** And the koff?
**A.** The koff was 0.0354 s⁻¹.

**Q.** And the kon?
**A.** The kon was 2.84e+06 M⁻¹ s⁻¹.

B12: anti-mutCALR antibody clone 25 (antibody, human IgG1, lambda, V domains shown)
VH: B1 VH
VL: B1 VL with S11A, P21T, S29R, E30K, G31A, S75N
notes: human IgG1
**Q.** What does the source list for B12?
**A.** Kd: 6.64 nM; koff: 0.00389 s⁻¹; kon: 585000 M⁻¹ s⁻¹

B13: anti-mutCALR antibody clone 24 (antibody, human IgG1, lambda, V domains shown)
VH: B1 VH with F64L
VL: B1 VL with E3V, Q16K, P21T, E30K, G31S, S75N
notes: human IgG1
**Q.** What does the source list for B13?
**A.** Kd: 7.62 nM; koff: 0.00199 s⁻¹; kon: 261000 M⁻¹ s⁻¹

B14: anti-mutCALR antibody clone 22 (antibody, human IgG1, lambda, V domains shown)
VH: B1 VH
VL: B1 VL with E3V, Q16K, P21T, E30K, G31N, S75N
notes: human IgG1
**Q.** With B14 as the binder, how does the Kd read?
**A.** Its Kd is 12.6 nM.

**Q.** What about the koff of the same binder?
**A.** The koff was 0.00289 s⁻¹.

**Q.** And the kon?
**A.** Its kon is 229000 M⁻¹ s⁻¹.

B15: anti-mutCALR antibody clone 30 (antibody, human IgG1, lambda, V domains shown)
VH: B1 VH
VL: B1 VL with E3V, Q16K, R19T, P21T, S29T, E30K, G31S, S75N
notes: human IgG1
**Q.** What does the source list for B15?
**A.** Kd: 12.8 nM; koff: 0.00295 s⁻¹; kon: 231000 M⁻¹ s⁻¹

B16: anti-mutCALR antibody clone 23 (antibody, human IgG1, lambda, V domains shown)
VH: B1 VH
VL: B1 VL with E3V, P21T, S29I, E30K, G31S, S75N
notes: human IgG1
**Q.** How did the Kd turn out when B16 was run?
**A.** The Kd was 4.37 nM.

**Q.** And the koff?
**A.** Its koff is 0.00343 s⁻¹.

**Q.** And the kon?
**A.** Its kon is 785000 M⁻¹ s⁻¹.

B17: anti-mutCALR antibody clone 28 (antibody, human IgG1, lambda, V domains shown)
VH: B1 VH
VL: B1 VL with P21T, E30K, G31S, S92A, S93D, N94S, L96Q
notes: human IgG1
**Q.** With B17 as the binder, how does the Kd read?
**A.** The Kd was 19.5 nM.

**Q.** What about the koff of the same binder?
**A.** Its koff is 0.00897 s⁻¹.

**Q.** What about the kon of the same binder?
**A.** The kon was 460000 M⁻¹ s⁻¹.

B18: anti-mutCALR antibody clone 37 (antibody, human IgG1, lambda, V domains shown)
VH: QVQLVQSGAEVKKPGATVKISCKVSGYSFTDYFIHWVQQAPGKGLAWVGLVDPEDGETIYAEKFQGRVTITADTSTDTAYMELSSLRSEDTAVYYCATPGGILTDPDAFDIWGQGTMVTVSS
VL: QSALTQPASVSGSPGQSITISCTGTSSDVGGYNYVSWYQQHPGKAPKLMIYDVSNRPSGVSNRFSGSKSGNTASLTISGLQAEDEADYYCSSYTSSSTFYVFGTGTKVTVLG
notes: human IgG1
**Q.** Which Kd does the source give for B18 here?
**A.** Its Kd is 9.88 nM.

**Q.** And the koff?
**A.** Its koff is 0.00212 s⁻¹.

**Q.** And the kon?
**A.** Its kon is 215000 M⁻¹ s⁻¹.

B19: anti-mutCALR antibody clone 35 (antibody, human IgG1, lambda, V domains shown)
VH: B18 VH with K63R
VL: B18 VL with D52E, F99P
notes: human IgG1
**Q.** Which results are given for B19?
**A.** Kd: 2.82 nM; koff: 0.00599 s⁻¹; kon: 2.13e+06 M⁻¹ s⁻¹

B20: anti-mutCALR antibody clone 48 (antibody, human IgG1, lambda, V domains shown)
VH: EVQLVQSGAEVKKPGSSVKVSCKASGGTFSSYAISWVRQAPGQGLEWMGGIIPIFGTANYAQKFQGRVTITADESTSTAYMELSSLRSEDTAVYYCASSPLRGSGWYWHYYYGMDVWGQGTTVTVSS
VL: SYVLTQPPSVSVAPGKTARITCGGNNIGSKSVHWYQQKPGQAPVLVIYQDRKRPSGIPERFSGSNSGNTATLTISGTQAMDEADYYCQAWDSSTAVFGGGTKLTVLG
notes: human IgG1
**Q.** What does the source list for B20?
**A.** Kd: 1.64 nM; koff: 0.000297 s⁻¹; kon: 181000 M⁻¹ s⁻¹

B21: anti-mutCALR antibody clone 49 (antibody, human IgG1, lambda, V domains shown)
VH: B20 VH
VL: SYELTQPPSVSVAPGKTARITCGGNNIRAKHVHWYQQKPGQSPVLVIYQDSKRPSGIPERFSGSNSGSTATLTISRVEAGDEADYYCQVWDSSTVVFGGGTKLTVLG
notes: human IgG1
**Q.** B21 was tested. Which Kd did it give?
**A.** Its Kd is 3.61 nM.

**Q.** What about the koff of the same binder?
**A.** The koff was 0.000669 s⁻¹.

**Q.** What about the kon of the same binder?
**A.** The kon was 185000 M⁻¹ s⁻¹.

B22: anti-mutCALR antibody clone 44 (antibody, human IgG1, lambda, V domains shown)
VH: B20 VH
VL: B20 VL with V12A, T21S, G28R, P39A, R51S, S93N, A95V
notes: human IgG1
**Q.** How did the Kd turn out when B22 was run?
**A.** Its Kd is 3.84 nM.

**Q.** And the koff?
**A.** Its koff is 0.00101 s⁻¹.

**Q.** What about the kon of the same binder?
**A.** The kon was 263000 M⁻¹ s⁻¹.

B23: anti-mutCALR antibody clone 45 (antibody, human IgG1, lambda, V domains shown)
VH: B20 VH
VL: SYVLTQPLSVSVAPGQTARITCGGNNIGRKSVHWYQQKPGQAPVLVIYRDSNRPSGIPERFSGSNSGNTATLTISRAQAGDEADYYCQVWDSSTVVFGGGTKLTVLG
notes: human IgG1
**Q.** Which results are given for B23?
**A.** Kd: 5.13 nM; koff: 0.0011 s⁻¹; kon: 214000 M⁻¹ s⁻¹

B24: anti-mutCALR antibody clone 47 (antibody, human IgG1, lambda, V domains shown)
VH: B20 VH
VL: B23 VL with V3E, L8P, Q16K, N26K, R29T
notes: human IgG1
**Q.** Which Kd does the source give for B24 here?
**A.** Its Kd is 3.62 nM.

**Q.** What about the koff of the same binder?
**A.** Its koff is 0.000772 s⁻¹.

**Q.** And the kon?
**A.** The kon was 213000 M⁻¹ s⁻¹.
